One assay concerns the target T1, HIF-1α protein (Homo sapiens, UniProt Q16665).
T1 construct: expressed in transfected cells; host or cells: HEK 293
Briefly: Co-immunoprecipitation / immunoblotting with HIF-1α in transfected HEK 293 cells. The class given is binding. Particulars: transient transfection. The method, then: FIGS. 9a-c are Western blot analyses of FLAG (MSF-A; FIGS. 9a and b) and HIF-1α (FIG. 9c) depicting the interaction between HIF-1α and the WT or deleted forms of MSF-A. HEK 293 cells were transiently co-transfected with expression vector encoding Flag-MSF-A (WT; p3xFlag-MSF-A), Flag-ΔG (AG; p3xFlag-ΔG-MSF-A), Flag-ΔN (ΔN; p3xFlag-ΔN-MSF-A) or empty vector (EV; p3xFlag-cmv-25). After 48 hours, the cells were lysed, subjected for immunoprecipitation (IP) using HIF-1α antibody and then immunoblotted (IB) with HIF-1α or Flag antibodies. FIG. 9a—whole cell extracts (WCE) subjected to IB with the Flag antibody (MSF-A); FIG. 9b—IP prepared by the HIF-1α antibody were subjected to IB with the Flag antibody (MSF-A); FIG. 9c—IP prepared by the HIF-1α antibody were subjected to IB with the HIF-1α antibody.
Immunoblotting—Proteins (30-60 μg/lane) from WCEs were resolved by 7.5% SDS-PAGE, electro-blotted to nitrocellulose membranes and incubated with the indicated primary antibodies, followed by horseradish peroxidase-conjugated secondary antiserum (Amersham Biosciences, Piscataway, N.J.). Immunoreactivity was visualized by Amersham enhanced chemiluminescence reagent (Amersham Biosciences, Piscataway, N.J.). For sequential blotting with additional antibodies, the membranes were stripped from the first primary antibody using a restore Western blot stripping buffer (Pierce, Rockford, Ill.) and were re-probed using the second primary antibody as indicated.
Immunoprecipitation—Cells were washed twice with ice-cold PBS, lysed in 20 mM Na-HEPES, pH 7.5, 0.5% Nonidet P-40, 0.1M NaCl, 2 mM EDTA, 10% Glycerol and 2 mM DTT supplemented with protease and phosphatase inhibitors, and were subjected to immunoprecipitation using anti-HIF-1α antibody and protein G-agarose beads (Pierce, Ill.) according to the manufacturer's instructions.
To confirm the interaction between the HIF-1α and the MSF-A proteins, HEK 293 cells were transiently co-transfected with the p3xFlag-MSF-A and the pcDNA3.1-HIF-1α vectors, and were grown for 24 hours under normoxic conditions (i.e., conditions of 20% oxygen), following which whole cell extracts (WCE) were subjected to co-immunoprecipitation (IP) using anti-FLAG or anti-HIF-1α antibodies. Following IP, the proteins were subjected to SDS-PAGE and immunoblotting (IB) using the counterpart antibody. As is shown in FIGS. 3a-d, following transfection with both expression vectors (i.e., pcDNA3.1-HIF-1α and p3xFlag-MSF-A) immunoprecipitates generated using either the anti-HIF-1α antibody or the anti-Flag antibody included the reciprocal proteins, i.e., the Flag-MSF-A or HIF-1α proteins, respectively.
In general terms: Immunoblotting shows a protein as a band on a membrane.

The subject of assay [1] is HIF-1α transcriptional activity. Briefly: HRE-dependent luciferase reporter gene assay in HEK 293 cells. The class given is cell-based. Particulars: transient transfection, hypoxia, compared with empty vector. On the procedure: FIG. 7 is a graph depicting luciferase activity (a reporter of HIF-1α transcriptional activation) as a function of the presence or absence of the N-terminus of the MSF-A protein. HEK 293 cells were co-transfected with 0.1 μg HRE-dependent luciferase reporter [pBI-GL V6L (Post, D. E., and Van Meir, E. G. 2001. Generation of bidirectional hypoxia/HIF-responsive expression vectors to target gene expression to hypoxic cells. Gene Ther 8, 1801-1807. Mabjeesh, N. J., et al., 2002, Geldanamycin induces degradation of hypoxia-inducible factor 1 alpha protein via the proteasome pathway in prostate cancer cells. Cancer Res 62, 2478-2482) and the wild type (WT) MSF-A (p3xFlag-MSF-A), ΔN-MSF-A (ΔN) (p3xFlag-ΔN-MSF-A) or empty vector (EV) (p3xFlag-cmv-25) constructs as follows: Experiment (Exp.) No. 1=1 μg EV; Exp. No. 2=0.5 μg EV and 0.5 μg WT; Exp. No. 3-1 μg WT; Exp. No. 4=0.5 μg EV and 0.5 μg ΔN; Exp. No. 5=1 μg ΔN. After 24 hours of transfection, cells were subjected to normoxia or hypoxia for overnight and then analyzed for luciferase luminescence assay. Luciferase activity is presented as relative units per μg protein in each experiment. Columns represent means; bars represent SD; n=3; *, p<0.05 compared to hypoxia of EV. Note the significant decrease of luciferase activity in cells grown under hypoxia and transfected with the N-terminus truncated form (ΔN) of MSF-A as compared with cells transfected with the wild-type form of MSF-A. Also note that under normoxia, when the luciferase activity is hardly detected, no significant difference is obtained.
FIG. 8 is a graph depicting luciferase activity (a reporter of HIF-1α transcriptional activation) as a function of the presence or absence of the GTP binding site of MSF-A (ΔG). HEK 293 cells were cotransfected with HRE-dependent luciferase reporter and the expression vector encoding wild-type MSF-A (WT) (p3xFlag-MSF-A), the deleted GTP binding site form of MSF-A (ΔG) (p3xFlag-ΔG-MSF-A) or empty vector (EV) (p3xFlag-cmv-25) and then were exposed to hypoxia conditions as described in the description of FIG. 4, hereinabove. Luciferase activity is presented as relative units per μg protein in each experiment. Columns represent means; bars represent SD; n=3. Note the non-significant effect of the ΔG-MSF-A on HIF-1α activity.
Reporter gene assay and luminescence measurements—HRE-dependent luciferase activity was performed using the pBI-GL construct (pBI-GL V6L) containing six tandem copies of the VEGF hypoxia response element as previously described (Mabjeesh et al., 2002; Post and Van Meir, 2001). […] Luciferase enzymatic activity was measured using the commercial kit TROPIX (Bedford, Mass.) in the Galaxy luminometer (BMG Labtechnologies LUMIstar) following the manufacturer's instructions. […]
(In general: A reporter such as luciferase makes a cellular process visible.)

Entries after “also recorded” stand apart in the source; their conditions may differ.

T1 sequence (Q16665 whole entry): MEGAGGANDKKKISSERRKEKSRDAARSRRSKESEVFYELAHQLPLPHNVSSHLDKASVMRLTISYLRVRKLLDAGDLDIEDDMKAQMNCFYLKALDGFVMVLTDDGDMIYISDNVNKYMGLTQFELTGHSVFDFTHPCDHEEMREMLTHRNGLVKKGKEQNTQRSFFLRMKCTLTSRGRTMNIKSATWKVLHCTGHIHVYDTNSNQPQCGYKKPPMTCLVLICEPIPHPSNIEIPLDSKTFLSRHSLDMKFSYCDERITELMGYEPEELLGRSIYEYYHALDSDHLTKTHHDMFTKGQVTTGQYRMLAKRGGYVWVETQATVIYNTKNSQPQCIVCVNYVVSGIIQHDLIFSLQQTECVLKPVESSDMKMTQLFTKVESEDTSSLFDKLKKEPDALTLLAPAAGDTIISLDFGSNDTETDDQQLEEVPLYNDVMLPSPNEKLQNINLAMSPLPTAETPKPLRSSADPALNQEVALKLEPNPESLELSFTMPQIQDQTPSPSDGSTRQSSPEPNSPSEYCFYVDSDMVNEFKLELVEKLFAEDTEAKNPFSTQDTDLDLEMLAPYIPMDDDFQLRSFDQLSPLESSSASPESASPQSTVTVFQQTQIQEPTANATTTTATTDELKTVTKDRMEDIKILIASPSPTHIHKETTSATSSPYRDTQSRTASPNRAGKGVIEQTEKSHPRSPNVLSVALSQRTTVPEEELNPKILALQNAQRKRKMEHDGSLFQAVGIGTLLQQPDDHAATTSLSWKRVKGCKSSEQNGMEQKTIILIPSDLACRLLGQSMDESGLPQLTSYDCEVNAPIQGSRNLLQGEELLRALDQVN

B1: ΔG-MSF-A: MSF-A mutant lacking the GTP binding domain, deletion of amino acids 305-312 GQSGLGKS (SEQ ID NO:4215) (protein, listed as Homo sapiens)
chain: MKKSYSGGTRTSSGRLRRLGDSSGPALKRSFEVEEVETPNSTPPRRVQTPLLRATVASSTQKFQDLGVKNSEPSARHVDSLSQRSPKASLRRVELSGPKAAEPVSRRTELSIDISSKQVENAGAIGPSRFGLKRAEVLGHKTPEPAPRRTEITIVKPQESAHRRMEPPASKVPEVPTAPATDAAPKRVEIQMPKPAEAPTAPSPAQTLENSEPAPVSQLQSRLEPKPQPPVAEATPRSQEATEAAPSCVGDMADTPRDAGLKQAPASRNEKAPVDFGYVGIDSILEQMRRKAMKQGFEFNIMVVTLINTLFKSKISRKSVQPTSEERIPKTIEIKSITHDIEEKGVRMKLTVIDTPGFGDHINNENCWQPIMKFINDQYEKYLQEEVNINRKKRIPDTRVHCCLYFIPATGHSLRPLDIEFMKRLSKVVNIVPVIAKADTLTLEERVHFKQRITADLLSNGIDVYPQKEFDEDSEDRLVNEKFREMIPFAVVGSDHEYQVNGKRILGRKTKWGTIEVENTTHCEFAYLRDLLIRTHMQNIKDITSSIHFEAYRVKRLNEGSSAMANGVEEKEPEAPEM
modifications: 3xFlag tag
On to B1, for which the figures for the “association with HIF-1α protein (co-immunoprecipitation)” value in the assay with HIF-1α protein and in the assay with HIF-1α protein (listed as ΔG-MSF) were “capable of binding” and “co-immunoprecipitated”, respectively. In addition, the “HIF-1α transcriptional activity (luciferase reporter)” value in assay [1] is “no significant effect”; in assay [1] (listed as ΔG-MSF), “lack of activation”.

B2: ΔN-MSF-A: N-terminal truncated MSF-A, deletion of the first 25 amino acids (SEQ ID NO:10, encoded by SEQ ID NO:7) (protein, listed as Homo sapiens)
chain: ALKRSFEVEEVETPNSTPPRRVQTPLLRATVASSTQKFQDLGVKNSEPSARHVDSLSQRSPKASLRRVELSGPKAAEPVSRRTELSIDISSKQVENAGAIGPSRFGLKRAEVLGHKTPEPAPRRTEITIVKPQESAHRRMEPPASKVPEVPTAPATDAAPKRVEIQMPKPAEAPTAPSPAQTLENSEPAPVSQLQSRLEPKPQPPVAEATPRSQEATEAAPSCVGDMADTPRDAGLKQAPASRNEKAPVDFGYVGIDSILEQMRRKAMKQGFEFNIMVVGQSGLGKSTLINTLFKSKISRKSVQPTSEERIPKTIEIKSITHDIEEKGVRMKLTVIDTPGFGDHINNENCWQPIMKFINDQYEKYLQEEVNINRKKRIPDTRVHCCLYFIPATGHSLRPLDIEFMKRLSKVVNIVPVIAKADTLTLEERVHFKQRITADLLSNGIDVYPQKEFDEDSEDRLVNEKFREMIPFAVVGSDHEYQVNGKRILGRKTKWGTIEVENTTHCEFAYLRDLLIRTHMQNIKDITSSIHFEAYRVKRLNEGSSAMANGVEEKEPEAPEM
modifications: 3xFlag tag
On to B2, for which the results for the “association with HIF-1α protein (co-immunoprecipitation)” value with HIF-1α protein, in the assay with HIF-1α protein (listed as N-terminal truncated form of MSF-A) and with HIF-1α protein (listed as ΔN-MSF) were “capable of binding”, “unable to form a protein complex” and “co-immunoprecipitated”, respectively. Besides, the “HIF-1α transcriptional activity (luciferase reporter)” value in assay [1] is recorded as “dose-dependent inhibition; also recorded: inhibition of HIF-1α activation below the level observed in cells transfected with the empty vector”.

Values taken from patent US8143228B2, “Agents capable of downregulating an MSF-A dependent HIF-1α and use thereof in cancer treatment” (Medical Research Fund of Tel Aviv Sourasky Medical Center, priority 2004, dated 2012).
